Reference: the supplement of paper PMC7125110
± gives the standard error. Fewer inactive variants are shown than the library holds.

B1: glmS ribozyme (parent)
chain: AUAAAAGCGCCAGAACUACAGAAAUGUAGUUGACGAGGAGGAGGUUUAUCGAAUUUUCGGCGGAUGCCUCCAAA

Columns and labels:
Conditions in all cases: with glucosamine-6-phosphate
[1] = variants of: B1; test: self-cleavage kobs at 640 uM GlcN6P; higher = faster cleavage; RNA array
In short: (§1)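 Over ~14 h at 37 °C, tiles were imaged as glucosamine-6-phosphate (40 μM to 10 mM) in HEPES/KCl/Mg(OAc)2 buffer flowed across sequenced MiSeq chips. The chips carried barcoded ribozyme variants transcribed in situ by E. coli RNA polymerase and tracked with a hybridised Cy3 probe. After normalisation to baseline and to non-cleaving reference variants, one- or two-exponential decay fits of per-tile medians gave kobs. kcat and KM followed from weighted Michaelis–Menten fits across concentrations.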

[2] = variants of: B1; test: self-cleavage kobs at 2500 uM GlcN6P; higher = faster cleavage; RNA array
In short: as §1

[3] = variants of: B1; test: self-cleavage kobs at 10000 uM GlcN6P; higher = faster cleavage; RNA array
In short: as §1

Variant | self-cleavage kobs at 640 uM GlcN6P [1] [s⁻¹] | self-cleavage kobs at 2500 uM GlcN6P [2] [s⁻¹] | self-cleavage kobs at 10000 uM GlcN6P [3] [s⁻¹]
AUAAAAGCGCCAGAACUACAGAAAUGUAGUUGACGAGGAGGAGGUUUCUCGAAUUUUCGGCGGAUGCCUUGAAA [A48C C70U C71G] | < 1e-05 |  | 
AUAAAAGCGCCAGAACUACAGAAAUGUAGUUGACGAGGAGGAGGUUAUUCGAAUUUUCGGCGGAUGCCUUCAAA [U47A A48U C70U] | 0.000162 ± 5.1e-05 | 0.000141 ± 3.3e-05 | 0.000573 ± 0.00021
AUAAAAGCGCCAGAACUACAGAAAUGUAGUUGACGAGGAGGAGGUUUAACGAAUUUUCGGCGUAUGCCUCCAAA [U49A G63U] | < 1e-05 |  | 
AUAAAAGCGCCAGAACUACAGAAAUGUAGUUGACGAGGAGGAGGUGUAUCGAAUCUUCGGCGGAUGACUCCAAA [U46G U55C C67A] | 8.32e-05 ± 1.9e-05 | 6.57e-05 ± 1.5e-05 | 
AUAAAAGCGCCAGAACUACAGAAAUGUAGUUGACGAGGAGGAGGUUAAUCGAAUUUUCGGCAGAUGCCUCCAAA [U47A G62A] | < 1e-05 | < 1e-05 | 
AUAAAAGCGCCAGAACUACAGAAAUGUAGUUGACGAGGAGGAGGUUAAUCGUAUUUUCGGCGGGUGCCUCCAAA [U47A A52U A64G] | 7.01e-05 ± 1.7e-05 | 0.000177 ± 5.4e-05 | 
AUAAAAGCGCCAGAACUACAGAAAUGUAGUUGACGAGGAGGAGGUUUACCGAAUUUUCGGCGGAAGCCUCCAAA [U49C U65A] | < 1e-05 |  | < 1e-05
AUAAAAGCGCCAGAACUACAGAAAUGUAGUUGACGAGGAGGAGGGUUAGCGAAUUUUCGGCGGAUGCCUCCAAA [U45G U49G] | 0.000102 ± 1.6e-05 | 0.000422 ± 8.4e-05 | 
AUAAAAGCGCCAGAACUACAGAAAUGUAGUUGACGAGGAGGAGGUUCACCGAAUUUUCGGCAAAUGCCUCCAAA [U47C U49C G62A G63A] | < 1e-05 |  | 
AUAAAAGCGCCAGAACUACAGAAAUGUAGUUGACGAGGAGGAGGUUAAUCGAAUUUUCGGCGGAUCCCUCUAAA [U47A G66C C71U] | 0.000187 ± 6.3e-05 | 0.000491 ± 0.00012 | 
AUAAAAGCGCCAGAACUACAGAAAUGUAGUUGACGAGGAGGAGGUUUACCGUAUUUUCGGCUGAUGCCUCCAAA [U49C A52U G62U] | < 1e-05 |  | 
AUAAAAGCGCCAGAACUACAGAAAUGUAGUUGACGAGGAGGAGGUUUUUCGAAUUUGCGGCUGAUGCCUCCAAA [A48U U57G G62U] | < 1e-05 | < 1e-05 | 
AUAAAAGCGCCAGAACUACAGAAAUGUAGUUGACGAGGAGGAGGUUUGUCGAAUUUUAGGCGGAUGGCUUCAAA [A48G C58A C67G C70U] | 0.000135 ± 4.4e-05 | 6.91e-05 ± 2.5e-05 | 4.32e-05 ± 1.3e-05
AUAAAAGCGCCAGAACUACAGAAAUGUAGUUGACGAGGAGGAGGUUUCUCGAAUGUUCGGCGGAUGCCUCCAAA [A48C U55G] | 0.000142 ± 3.3e-05 | 0.00018 ± 7e-05 | 
AUAAAAGCGCCAGAACUACAGAAAUGUAGUUGACGAGGAGGAGGUUUAACGAAUUUCCGGCGGAUGCCUCCAAA [U49A U57C] | < 1e-05 |  | 
AUAAAAGCGCCAGAACUACAGAAAUGUAGUUGACGAGGAGGAGGUUAAUGGAAUUUUCGGCGGAUGUCUCAAAA [U47A C50G C67U C71A] | 0.000221 ± 0.00011 |  | 0.000134 ± 2.8e-05
AUAAAAGCGCCAGAACUACAGAAAUGUAGUUGACGAGGAGGAGGUUUCGAGAAUUUUCGGCGGAUGCCUCCAAA [A48C U49G C50A] | < 1e-05 |  | 
AUAAAAGCGCCAGAACUACAGAAAUGUAGUUGACGAGGAGGAGGUGUAUGGAAUUUUCGGCGGAUGCCUCAAAA [U46G C50G C71A] | 8.98e-05 ± 3.3e-05 |  | 
AUAAAAGCGCCAGAACUACAGAAAUGUAGUUGACGAGGAGGAGGUUUAGCGAAUUUUCGGCGGAUGCGGCCAAA [U49G C68G U69G] | 5.67e-05 ± 2.1e-05 |  | 
AUAAAAGCGCCAGAACUACAGAAAUGUAGUUGACGAGGAGGAGGUUGAUCGAAUUUUCGGCUGAUGCCUCCAAA [U47G G62U] | < 1e-05 |  | 
AUAAAAGCGCCAGAACUACAGAAAUGUAGUUGACGAGGAGGAGGUGUAUCGAAUUUUCGGCCGAUGCCUCCAAA [U46G G62C] | < 1e-05 |  | < 1e-05

Variant | self-cleavage kobs at 640 uM GlcN6P [1] [s⁻¹] | self-cleavage kobs at 2500 uM GlcN6P [2] [s⁻¹] | self-cleavage kobs at 10000 uM GlcN6P [3] [s⁻¹]
AUAAAAGCGCCAGAACUACAGAAAUGUAGUUGACGAGGAGGAGGUUAAUCGAAUUUUCGGUGGAUGCCGCCAAA [U47A C61U U69G] | 0.00233 ± 0.0008 |  | 
AUAAAAGCGCCAGAACUACAGAAAUGUAGUUGACGAGGAGGAGGUUUGCCGAAUUUUCGGCGGAUACCUCCAAA [A48G U49C G66A] | < 1e-05 |  | 
AUAAAAGCGCCAGAACUACAGAAAUGUAGUUGACGAGGAGGAGGUUAAUCAAAUUUUCGGCGGAUGCCUCGAAA [U47A G51A C71G] | 0.0001 ± 3.9e-05 |  | 
AUAAAAGCGCCAGAACUACAGAAAUGUAGUUGACGAGGAGGAGGUCUUUGUAAUUUUCGGCGGAUGCCUCCAAA [U46C A48U C50G G51U] | < 1e-05 | < 1e-05 | < 1e-05
AUAAAAGCGCCAGAACUACAGAAAUGUAGUUGACGAGGAGGAGGUCUAUCGAAUUUUCGGCGGAUGCCUCGAAA [U46C C71G] | 7.56e-05 ± 1.5e-05 | 0.000331 ± 5e-05 | 0.000149 ± 6.2e-05
AUAAAAGCGCCAGAACUACAGAAAUGUAGUUGACGAGGAGGAGGUAUAUCGAAUUUUCGGCGGAUGCCUGCAAA [U46A C70G] | 0.000146 ± 4.1e-05 | 0.00037 ± 0.00011 | 0.000156 ± 3.1e-05
AUAAAAGCGCCAGAACUACAGAAAUGUAGUUGACGAGGAGGAGGUUUACCAAAUUUUCGGCGGAUGCCUCCAAA [U49C G51A] | < 1e-05 |  | < 1e-05
AUAAAAGCGCCAGAACUACAGAAAUGUAGUUGACGAGGAGGAGGUUAAUCGAAUUUUCGGCGGAUUCAUCCAAA [U47A G66U C68A] | 0.00243 ± 0.00077 | 5.79e-05 ± 1.7e-05 | 
AUAAAAGCGCCAGAACUACAGAAAUGUAGUUGACGAGGAGGAGGUUCAUCGAAUUUUCGGCGGAUGCCCCCAAA [U47C U69C] | 0.000374 ± 0.00011 | 0.00197 ± 0.00045 | 
AUAAAAGCGCCAGAACUACAGAAAUGUAGUUGACGAGGAGGAGGUUCAUCGAAUUUUCGGCGGAUGCCGCCAAA [U47C U69G] | 4.72e-05 ± 1.9e-05 | 0.000104 ± 2.3e-05 | 6.08e-05 ± 1.5e-05
AUAAAAGCGCCAGAACUACAGAAAUGUAGUUGACGAGGAGGAGGUUCAUCGAAUUUUCGGCGGAUGACUCCAAA [U47C C67A] | 0.000623 ± 0.00018 | 0.000286 ± 9.8e-05 | 0.000244 ± 8e-05
AUAAAAGCGCCAGAACUACAGAAAUGUAGUUGACGAGGAGGAGGUUUGUCGAACUUUCGGCGGAUGUCUCCAAA [A48G U54C C67U] | < 1e-05 |  | 
AUAAAAGCGCCAGAACUACAGAAAUGUAGUUGACGAGGAGGAGGUUUCUGGAAUUUUCGGCGGAUGUUUCCAAA [A48C C50G C67U C68U] | 0.000151 ± 3.3e-05 | 0.000255 ± 8.7e-05 | 
AUAAAAGCGCCAGAACUACAGAAAUGUAGUUGACGAGGAGGAGGUUUCUCGAAUUGUCGAGGGAUGCCUCCAAA [A48C U56G G60A C61G] | < 1e-05 |  | 
AUAAAAGCGCCAGAACUACAGAAAUGUAGUUGACGAGGAGGAGGGUUAUCGAAUUUUCGGCGGAGUCCCCCAAA [U45G U65G G66U U69C] | 0.000332 ± 7.1e-05 | 0.00052 ± 0.00017 | 0.00192 ± 0.00028
AUAAAAGCGCCAGAACUACAGAAAUGUAGUUGACGAGGAGGAGGUAUAUCGAAUUUUAGGUGGAUGCCUCGAAA [U46A C58A C61U C71G] | < 1e-05 | < 1e-05 | 
AUAAAAGCGCCAGAACUACAGAAAUGUAGUUGACGAGGAGGAGGUUUUUCGAAUUUUCCGCGGAUGCGUCCAAA [A48U G59C C68G] | < 1e-05 |  | 
AUAAAAGCGCCAGAACUACAGAAAUGUAGUUGACGAGGAGGAGGUUUCUCGAAUUUUCGCCGGAUGCCUCGAAA [A48C G60C C71G] | < 1e-05 | < 1e-05 | 
AUAAAAGCGCCAGAACUACAGAAAUGUAGUUGACGAGGAGGAGGUUUGUCGACUUUUUUGCGGAUGCCUCCAAA [A48G A53C C58U G59U] | < 1e-05 |  | 
AUAAAAGCGCCAGAACUACAGAAAUGUAGUUGACGAGGAGGAGGUGUACCGAAUGUUCGGCGGAUGCCUCCAAA [U46G U49C U55G] | < 1e-05 | < 1e-05 | 
